Consider 2 molecules from publication PMC9868604, “Structural insights into 3Fe–4S ferredoxins diversity in M. tuberculosis highlighted by a first redox complex with P450” (Frontiers in Molecular Biosciences, 2022).

What all share (details): both partners purified
In assay [1] the target is T1, Biotinylated CYP143 with Avi-tag at the C-terminus (M. tuberculosis, UniProt P9WPL3 2-393, biotin (on the Avi-tag)).
T1 construct: also called CYP143A1; Rv1785c; not shown: Avi-tag, C-terminal, kept
In words: SPR.

Assay [2] concerns the target T1, Biotinylated CYP143 with Avi-tag at the …. The assay is described as follows: SPR; as a1, sensorgrams at 10, 15, 20, 25, 30 and 35°C; enthalpy from the slope of a Van't Hoff plot. (In SPR one partner is held on a chip, and binding of the other changes the refractive index at the surface.)
Assay [3] has as its target T2, CYP143 part of the FdxE-CYP143 fusion protein (M. tuberculosis, UniProt P9WPL3 2-393).
T2 construct: also called fusion FdxE–CYP143
In words: crystal structure; FdxE fused via a linker to the N-terminus of CYP143 on one chain; 1.6 Å; crystals in .2 M sodium chloride, .1 M Bis-Tris pH 6.0, 25% PEG3350, 20°C.

T1 sequence (P9WPL3 2-393): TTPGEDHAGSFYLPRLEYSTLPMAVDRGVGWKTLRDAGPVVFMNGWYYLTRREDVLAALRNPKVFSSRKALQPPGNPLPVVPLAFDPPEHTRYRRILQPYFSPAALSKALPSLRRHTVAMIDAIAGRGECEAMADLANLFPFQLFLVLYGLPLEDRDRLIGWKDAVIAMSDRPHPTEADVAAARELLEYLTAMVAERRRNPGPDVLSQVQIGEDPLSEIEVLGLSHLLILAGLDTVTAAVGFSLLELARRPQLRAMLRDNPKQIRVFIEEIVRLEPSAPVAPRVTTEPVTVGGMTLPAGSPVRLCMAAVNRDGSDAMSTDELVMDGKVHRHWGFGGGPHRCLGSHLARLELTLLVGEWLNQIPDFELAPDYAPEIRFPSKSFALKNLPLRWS
T2 sequence (P9WPL3 2-393): as above

B1: FdxE (Rv1786), 3Fe-4S ferredoxin of M. tuberculosis (natural protein)
chain: MKVRLDPSRCVGHAQCYAVDPDLFPIDDSGNSILAEHEVRPEDMQLTRDGVAACPEMALILEEDDAD
notes: also called ferredoxin Rv1786; mtb_1786
In assay [1], B1 gave a Kd of 84 ± 2 nM, a koff of 0.0423 ± 0.0005 s⁻¹ and a kon of 502000 M⁻¹ s⁻¹. The dH in assay [2] is -10.8 ± 2.15 kcal/mol.

B2: FdxE part of the FdxE-CYP143 fusion protein (domain or fragment)
chain: KVRLDPSRCVGHAQCYAVDPDLFPIDDSGNSILAEHEVRPEDMQLTRDGVAACPEMALILEEDDAD
notes: also called fusion FdxE–CYP143; not shown: His-tag, N-terminal, kept
Turning to B2, in assay [3], the binding result is given as “binds”.

A word on the Kd: it is the free concentration of one partner at which half of the binding sites on the other are occupied at equilibrium, for simple one-to-one binding. As a reminder, the koff is the first-order rate constant of dissociation. For orientation: kon means the second-order rate constant of association.
